Source: IntAct's records for PubMed 21317894

B1: Complement factor H (Homo sapiens), P08603 (parent)
chain: MRLLAKIICLMLWAICVAEDCNELPPRRNTEILTGSWSDQTYPEGTQAIYKCRPGYRSLGNVIMVCRKGEWVALNPLRKCQKRPCGHPGDTPFGTFTLTGGNVFEYGVKAVYTCNEGYQLLGEINYRECDTDGWTNDIPICEVVKCLPVTAPENGKIVSSAMEPDREYHFGQAVRFVCNSGYKIEGDEEMHCSDDGFWSKEKPKCVEISCKSPDVINGSPISQKIIYKENERFQYKCNMGYEYSERGDAVCTESGWRPLPSCEEKSCDNPYIPNGDYSPLRIKHRTGDEITYQCRNGFYPATRGNTAKCTSTGWIPAPRCTLKPCDYPDIKHGGLYHENMRRPYFPVAVGKYYSYYCDEHFETPSGSYWDHIHCTQDGWSPAVPCLRKCYFPYLENGYNQNYGRKFVQGKSIDVACHPGYALPKAQTTVTCMENGWSPTPRCIRVKTCSKSSIDIENGFISESQYTYALKEKAKYQCKLGYVTADGETSGSITCGKDGWSAQPTCIKSCDIPVFMNARTKNDFTWFKLNDTLDYECHDGYESNTGSTTGSIVCGYNGWSDLPICYERECELPKIDVHLVPDRKKDQYKVGEVLKFSCKPGFTIVGPNSVQCYHFGLSPDLPICKEQVQSCGPPPELLNGNVKEKTKEEYGHSEVVEYYCNPRFLMKGPNKIQCVDGEWTTLPVCIVEESTCGDIPELEHGWAQLSSPPYYYGDSVEFNCSESFTMIGHRSITCIHGVWTQLPQCVAIDKLKKCKSSNLIILEEHLKNKKEFDHNSNIRYRCRGKEGWIHTVCINGRWDPEVNCSMAQIQLCPPPPQIPNSHNMTTTLNYRDGEKVSVLCQENYLIQEGEEITCKDGRWQSIPLCVEKIPCSQPPQIEHGTINSSRSSQESYAHGTKLSYTCEGGFRISEENETTCYMGKWSSPPQCEGLPCKSPPEISHGVVAHMSDSYQYGEEVTYKCFEGFGIDGPAIAKCLGEKWSHPPSCIKTDCLSLPSFENAIPMGEKKDVYKAGEQVTYTCATYYKMDGASNVTCINSRWTGRPTCRDTSCVNPPTVQNAYIVSRQMSKYPSGERVRYQCRSPYEMFGDEEVMCLNGNWTEPPQCKDSTGKCGPPPPIDNGDITSFPLSVYAPASSVEYQCQNLYQLEGNKRITCRNGQWSEPPKCLHPCVISREIMENYNIALRWTAKQKLYSRTGESVEFVCKRGYRLSSRSHTLRTTCWDGKLEYPTCAKR

Variants of: B1
Conditions: with co3_human C3, P01024
Sequence of co3_human C3, P01024 (P01024 whole entry): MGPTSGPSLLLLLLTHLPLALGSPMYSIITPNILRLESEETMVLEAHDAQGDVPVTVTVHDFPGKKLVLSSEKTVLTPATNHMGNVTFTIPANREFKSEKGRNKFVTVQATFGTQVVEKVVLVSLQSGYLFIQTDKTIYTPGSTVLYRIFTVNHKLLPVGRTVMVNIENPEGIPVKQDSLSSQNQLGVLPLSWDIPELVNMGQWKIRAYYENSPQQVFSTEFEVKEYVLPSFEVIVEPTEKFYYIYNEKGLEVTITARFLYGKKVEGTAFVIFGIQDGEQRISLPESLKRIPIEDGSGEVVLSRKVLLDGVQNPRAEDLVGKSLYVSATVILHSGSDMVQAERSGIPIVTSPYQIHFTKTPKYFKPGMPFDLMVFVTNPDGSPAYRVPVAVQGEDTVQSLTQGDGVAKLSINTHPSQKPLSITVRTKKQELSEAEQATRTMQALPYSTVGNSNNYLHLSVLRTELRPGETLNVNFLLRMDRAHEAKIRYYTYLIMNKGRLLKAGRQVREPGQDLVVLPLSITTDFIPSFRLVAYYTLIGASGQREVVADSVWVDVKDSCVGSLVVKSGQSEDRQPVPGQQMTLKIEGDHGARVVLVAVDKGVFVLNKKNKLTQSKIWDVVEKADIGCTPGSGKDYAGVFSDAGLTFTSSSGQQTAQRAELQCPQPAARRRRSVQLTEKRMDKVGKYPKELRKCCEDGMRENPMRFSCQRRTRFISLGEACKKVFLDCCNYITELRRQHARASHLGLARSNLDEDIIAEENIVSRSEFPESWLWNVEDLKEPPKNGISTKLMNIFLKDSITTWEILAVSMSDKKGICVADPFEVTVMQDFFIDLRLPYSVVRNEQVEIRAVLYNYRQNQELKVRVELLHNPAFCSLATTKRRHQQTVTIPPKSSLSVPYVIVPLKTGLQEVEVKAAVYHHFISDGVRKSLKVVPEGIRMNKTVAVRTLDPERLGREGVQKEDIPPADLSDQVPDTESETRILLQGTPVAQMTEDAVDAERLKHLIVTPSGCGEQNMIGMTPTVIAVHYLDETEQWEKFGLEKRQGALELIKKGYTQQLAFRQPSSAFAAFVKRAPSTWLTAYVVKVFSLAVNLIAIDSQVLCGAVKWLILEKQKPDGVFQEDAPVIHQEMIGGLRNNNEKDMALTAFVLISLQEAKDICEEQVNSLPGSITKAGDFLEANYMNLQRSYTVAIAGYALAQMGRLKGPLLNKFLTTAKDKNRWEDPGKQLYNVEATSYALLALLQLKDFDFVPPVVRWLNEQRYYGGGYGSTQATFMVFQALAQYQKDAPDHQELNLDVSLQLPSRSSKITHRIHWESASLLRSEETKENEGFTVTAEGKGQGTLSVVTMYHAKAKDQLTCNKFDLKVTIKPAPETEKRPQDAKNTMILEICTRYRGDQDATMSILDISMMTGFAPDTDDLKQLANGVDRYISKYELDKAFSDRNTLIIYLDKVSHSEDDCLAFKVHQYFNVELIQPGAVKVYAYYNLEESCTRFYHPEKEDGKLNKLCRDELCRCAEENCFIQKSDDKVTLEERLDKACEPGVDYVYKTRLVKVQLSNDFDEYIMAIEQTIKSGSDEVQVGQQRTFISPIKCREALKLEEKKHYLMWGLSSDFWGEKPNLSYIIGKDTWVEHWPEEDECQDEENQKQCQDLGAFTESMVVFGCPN

Variant | effect of a mutation on the interaction
R1215Q | decreasing interaction
R1182S | decreasing interaction
D1119G | disrupting interaction
R1203S | decreasing interaction
